From patent publication US20180291103A1

What was measured:
[1] = target: PDL1-Fc fusion protein (human PDL1-Fc) (human); assay: SPR, BIAcore X100; PDL1-Fc on CM5 chip, antibody as analyte, 25 C
[2] = target: PDL1-Fc fusion protein (human PDL1-Fc) (human); assay: ELISA; OD on PDL1-Fc divided by OD on Fc protein, control group well (row 'blank')
[3] = target: Fc protein; assay: ELISA; Fc protein coated, control group well (row 'blank'), anti-His detection, 405 nm
[4] = target: PDL1-Fc fusion protein (human PDL1-Fc) (human); assay: ELISA; PDL1-Fc coated, control group well (row 'blank'), anti-His detection, 405 nm
[5] = target: Mouse PDL1-Fc protein (mouse); assay: ELISA; mouse PDL1-Fc coated at 0.5 µg/well, control group well (row 'blank'), anti-His detection, 405 nm
Mouse PDL1-Fc protein (mouse), sequence (chain, as listed by the source limits assumed): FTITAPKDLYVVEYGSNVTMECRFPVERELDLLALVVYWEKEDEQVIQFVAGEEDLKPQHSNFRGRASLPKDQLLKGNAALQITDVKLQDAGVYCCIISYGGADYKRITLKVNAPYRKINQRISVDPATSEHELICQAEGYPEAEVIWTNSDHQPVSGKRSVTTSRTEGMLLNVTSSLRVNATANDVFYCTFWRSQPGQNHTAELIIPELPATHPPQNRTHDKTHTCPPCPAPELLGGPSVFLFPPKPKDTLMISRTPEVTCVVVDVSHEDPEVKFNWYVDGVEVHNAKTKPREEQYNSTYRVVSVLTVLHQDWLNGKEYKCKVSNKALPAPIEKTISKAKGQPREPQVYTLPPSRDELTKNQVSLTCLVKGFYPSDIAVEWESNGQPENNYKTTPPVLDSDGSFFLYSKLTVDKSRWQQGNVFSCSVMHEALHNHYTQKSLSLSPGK

PDL1-Fc fusion protein (human PDL1-Fc) (human), sequence (chain, as listed by the source limits assumed): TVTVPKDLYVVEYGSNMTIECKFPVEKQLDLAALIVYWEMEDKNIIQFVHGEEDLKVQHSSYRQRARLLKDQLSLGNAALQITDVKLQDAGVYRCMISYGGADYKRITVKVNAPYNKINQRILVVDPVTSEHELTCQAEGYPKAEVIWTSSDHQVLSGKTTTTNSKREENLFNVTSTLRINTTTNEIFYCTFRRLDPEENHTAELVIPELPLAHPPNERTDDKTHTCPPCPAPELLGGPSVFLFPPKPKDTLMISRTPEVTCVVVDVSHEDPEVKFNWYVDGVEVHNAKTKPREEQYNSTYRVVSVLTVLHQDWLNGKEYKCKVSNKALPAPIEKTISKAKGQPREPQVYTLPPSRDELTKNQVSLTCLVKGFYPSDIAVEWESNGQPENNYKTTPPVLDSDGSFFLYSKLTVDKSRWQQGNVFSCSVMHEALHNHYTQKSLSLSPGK

| Kd [1] | OD (PDL1/Fc) [2] | OD (against Fc) [3] | OD (against PDL1) [4] | OD (against mouse PDL1) [5] | Substance |
| --- | --- | --- | --- | --- | --- |
| 0.135 nM |  |  |  |  | 243.55 (anti-PDL1 antibody of Roche) |
|  | 0.75 | 0.072 OD | 0.054 OD | 0.096 OD | control single domain antibody against other unrelated target (control group of the ELISA; table row 'blank') (VHH) |
